Results: IntAct's records for PubMed 31515488
Values belong to the substance of their own block, whether it stands above or below them.

What was measured:
gors2_human GORASP2 = gors2_human GORASP2 (UniProt Q9H8Y8)
dpyl5_human DPYSL5 = molecular target: T1, dpyl5_human DPYSL5 (UniProt Q9BPU6)
T1 sequence: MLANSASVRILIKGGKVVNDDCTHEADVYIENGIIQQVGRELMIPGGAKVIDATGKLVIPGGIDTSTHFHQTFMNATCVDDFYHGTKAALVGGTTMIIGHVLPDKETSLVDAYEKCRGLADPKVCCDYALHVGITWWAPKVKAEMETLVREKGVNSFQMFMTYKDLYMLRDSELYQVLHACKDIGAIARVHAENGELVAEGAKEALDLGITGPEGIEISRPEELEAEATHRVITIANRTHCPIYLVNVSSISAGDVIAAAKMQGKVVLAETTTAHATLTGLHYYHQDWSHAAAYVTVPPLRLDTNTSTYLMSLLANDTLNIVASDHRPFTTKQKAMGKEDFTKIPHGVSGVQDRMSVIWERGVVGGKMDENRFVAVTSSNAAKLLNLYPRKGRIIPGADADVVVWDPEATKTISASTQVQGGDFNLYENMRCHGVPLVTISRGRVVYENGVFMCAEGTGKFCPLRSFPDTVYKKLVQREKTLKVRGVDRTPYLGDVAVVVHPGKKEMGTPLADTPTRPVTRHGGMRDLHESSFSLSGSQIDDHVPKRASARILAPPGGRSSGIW

dpyl3_human DPYSL3 = dpyl3_human DPYSL3 (UniProt Q14195)
mdfi_human MDFI = mdfi_human MDFI (UniProt Q99750)
pdli7_human PDLIM7 = pdli7_human PDLIM7 (UniProt Q9NR12)
erep1_human ENTREP1 = erep1_human ENTREP1 (UniProt Q15884)
hnrl1_human HNRNPUL1 = hnrl1_human HNRNPUL1 (UniProt Q9BUJ2)
fxl18_human FBXL18 = fxl18_human FBXL18 (UniProt Q96ME1)
kcc2d_human CAMK2D = kcc2d_human CAMK2D (UniProt Q13557)
thap1_human THAP1 = thap1_human THAP1 (UniProt Q9NVV9)
nup50_human NUP50 = nup50_human NUP50 (UniProt Q9UKX7)
an32b_human ANP32B = an32b_human ANP32B (UniProt Q92688)
spopl_human SPOPL = spopl_human SPOPL (UniProt Q6IQ16)
zn446_human ZNF446 [1] = molecular target: zn446_human ZNF446 (UniProt Q9NWS9)
fhl3_human FHL3 = fhl3_human FHL3 (UniProt Q13643)
lhx8_human LHX8 = lhx8_human LHX8 (UniProt Q68G74)
traf2_human TRAF2 = traf2_human TRAF2 (UniProt Q12933)
otx1_human OTX1 = otx1_human OTX1 (UniProt P32242)
rtraf_human RTRAF = rtraf_human RTRAF (UniProt Q9Y224)
cof2_human CFL2 = cof2_human CFL2 (UniProt Q9Y281)
ntaq1_human NTAQ1 = ntaq1_human NTAQ1 (UniProt Q96HA8)
dest_human DSTN = molecular target: T2, dest_human DSTN (UniProt P60981)
T2 sequence: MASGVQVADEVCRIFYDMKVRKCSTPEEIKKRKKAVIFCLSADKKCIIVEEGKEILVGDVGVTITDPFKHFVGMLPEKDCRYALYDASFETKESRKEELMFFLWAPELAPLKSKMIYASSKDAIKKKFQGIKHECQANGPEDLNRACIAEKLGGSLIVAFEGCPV

efs_human EFS = efs_human EFS (UniProt O43281)
zn446_human ZNF446 [2] = molecular target: zn446_human ZNF446 (UniProt Q9NWS9); remark: listed apart in the source
rbtn2_human LMO2 = rbtn2_human LMO2 (UniProt P25791)
dzip3_human DZIP3 = dzip3_human DZIP3 (UniProt Q86Y13)
trim1_human MID2 [3] = molecular target: trim1_human MID2 (UniProt Q9UJV3)
zn446_human ZNF446 [4] = molecular target: zn446_human ZNF446 (UniProt Q9NWS9); remark: listed apart in the source
trim1_human MID2 [5] = molecular target: trim1_human MID2 (UniProt Q9UJV3); remark: listed apart in the source
mtus2_human MTUS2 = mtus2_human MTUS2 (UniProt Q5JR59)
ubql1_human UBQLN1 = ubql1_human UBQLN1 (UniProt Q9UMX0)
nasp_human NASP = nasp_human NASP (UniProt P49321)
kr101_human KRTAP10-1 = kr101_human KRTAP10-1 (UniProt P60331)
zbt14_human ZBTB14 = molecular target: T3, zbt14_human ZBTB14 (UniProt O43829)
T3 sequence: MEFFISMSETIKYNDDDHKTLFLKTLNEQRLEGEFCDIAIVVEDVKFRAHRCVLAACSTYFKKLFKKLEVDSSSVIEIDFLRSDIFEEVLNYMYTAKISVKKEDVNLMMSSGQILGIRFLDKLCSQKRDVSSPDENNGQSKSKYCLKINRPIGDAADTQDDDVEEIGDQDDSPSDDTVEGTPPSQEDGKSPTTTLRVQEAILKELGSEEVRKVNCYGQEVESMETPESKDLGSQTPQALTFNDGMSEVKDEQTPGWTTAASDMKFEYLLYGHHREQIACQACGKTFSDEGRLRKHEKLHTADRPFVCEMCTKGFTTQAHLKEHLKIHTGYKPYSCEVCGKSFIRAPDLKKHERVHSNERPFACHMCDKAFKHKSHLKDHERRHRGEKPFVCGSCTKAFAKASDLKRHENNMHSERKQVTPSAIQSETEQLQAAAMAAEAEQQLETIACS

tmm79_human TMEM79 = molecular target: T4, tmm79_human TMEM79 (UniProt Q9BSE2)
T4 sequence: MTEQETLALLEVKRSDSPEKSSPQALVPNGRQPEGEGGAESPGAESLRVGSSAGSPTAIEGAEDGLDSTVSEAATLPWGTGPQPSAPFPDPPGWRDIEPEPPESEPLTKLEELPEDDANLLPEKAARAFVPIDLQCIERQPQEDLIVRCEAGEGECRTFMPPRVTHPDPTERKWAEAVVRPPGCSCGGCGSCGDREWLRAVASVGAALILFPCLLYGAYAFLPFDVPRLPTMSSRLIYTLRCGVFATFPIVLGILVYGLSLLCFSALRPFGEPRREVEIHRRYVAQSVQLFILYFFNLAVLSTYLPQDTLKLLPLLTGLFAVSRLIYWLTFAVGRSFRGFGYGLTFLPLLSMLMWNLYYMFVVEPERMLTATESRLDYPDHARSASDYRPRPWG

cxcl9_human CXCL9 = molecular target: T5, cxcl9_human CXCL9 (UniProt Q07325)
T5 sequence: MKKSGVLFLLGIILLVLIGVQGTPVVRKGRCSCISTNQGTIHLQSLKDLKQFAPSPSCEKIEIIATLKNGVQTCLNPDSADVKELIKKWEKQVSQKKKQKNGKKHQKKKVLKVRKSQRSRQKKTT

hxb5_human HOXB5 = hxb5_human HOXB5 (UniProt P09067)
aapk1_human PRKAA1 = aapk1_human PRKAA1 (UniProt Q13131)
ctbp2_human CTBP2 = ctbp2_human CTBP2 (UniProt P56545)
cry2_human CRY2 = molecular target: T6, cry2_human CRY2 (UniProt Q49AN0)
T6 sequence: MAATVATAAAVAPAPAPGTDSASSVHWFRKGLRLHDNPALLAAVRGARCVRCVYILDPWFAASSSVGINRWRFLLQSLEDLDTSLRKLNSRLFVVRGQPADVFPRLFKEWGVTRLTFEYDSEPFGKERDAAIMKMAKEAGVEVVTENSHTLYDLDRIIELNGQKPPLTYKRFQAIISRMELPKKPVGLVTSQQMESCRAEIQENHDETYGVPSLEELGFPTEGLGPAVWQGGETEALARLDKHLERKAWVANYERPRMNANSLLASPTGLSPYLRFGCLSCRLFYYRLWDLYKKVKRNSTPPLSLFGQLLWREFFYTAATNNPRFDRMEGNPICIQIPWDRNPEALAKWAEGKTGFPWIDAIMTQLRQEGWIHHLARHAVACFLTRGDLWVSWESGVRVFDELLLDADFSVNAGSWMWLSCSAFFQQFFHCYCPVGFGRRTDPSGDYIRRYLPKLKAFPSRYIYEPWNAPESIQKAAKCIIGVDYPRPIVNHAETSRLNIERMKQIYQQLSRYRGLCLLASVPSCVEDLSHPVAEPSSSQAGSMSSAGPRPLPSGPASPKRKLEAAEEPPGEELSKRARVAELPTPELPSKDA

fund1_human FUNDC1 = fund1_human FUNDC1 (UniProt Q8IVP5)

- effect of a mutation on the interaction (gors2_human GORASP2): with no effect
- effect of a mutation on the interaction (dpyl5_human DPYSL5): with no effect
- effect of a mutation on the interaction (dpyl3_human DPYSL3): with no effect
Substance: Dihydropyrimidinase-related protein 2 (Homo sapiens) (from UniProt Q16555) A267S

- effect of a mutation on the interaction (mdfi_human MDFI): with no effect
Substance: Nuclear transition protein 2 (Homo sapiens), Q05952 R131W

- effect of a mutation on the interaction (pdli7_human PDLIM7): with no effect
- effect of a mutation on the interaction (erep1_human ENTREP1): with no effect
- effect of a mutation on the interaction (hnrl1_human HNRNPUL1): with no effect
- effect of a mutation on the interaction (fxl18_human FBXL18): with no effect
Substance: Isoform 1 of NEDD4-like E3 ubiquitin-protein ligase WWP2 (Homo sapiens), O00308-1 V717M

- effect of a mutation on the interaction (kcc2d_human CAMK2D): with no effect
- effect of a mutation on the interaction (thap1_human THAP1): with no effect
Substance: Large ribosomal subunit protein uL11m (Homo sapiens) (from UniProt Q9Y3B7) R142C

- effect of a mutation on the interaction (nup50_human NUP50): with no effect
- effect of a mutation on the interaction (an32b_human ANP32B): with no effect
- effect of a mutation on the interaction (spopl_human SPOPL): with no effect
Substance: Importin subunit alpha-6 (Homo sapiens), O15131 F48L

- effect of a mutation on the interaction (zn446_human ZNF446 [1]): with no effect
Substance: Zinc finger and SCAN domain-containing protein 16 (Homo sapiens), Q9H4T2 R137Q

- effect of a mutation on the interaction (fhl3_human FHL3): disrupting interaction strength
- effect of a mutation on the interaction (lhx8_human LHX8): disrupting interaction strength
- effect of a mutation on the interaction (traf2_human TRAF2): disrupting interaction strength
Substance: Isoform 1 of Krueppel-like factor 3 (Homo sapiens), P57682-1 C322F

- effect of a mutation on the interaction (otx1_human OTX1): with no effect
Substance: Cartilage oligomeric matrix protein (Homo sapiens), P49747 N386D

- effect of a mutation on the interaction (rtraf_human RTRAF): with no effect
Substance: Protein FAM98A (Homo sapiens), Q8NCA5 S283G

- effect of a mutation on the interaction (cof2_human CFL2): with no effect
- effect of a mutation on the interaction (ntaq1_human NTAQ1): disrupting interaction strength
- effect of a mutation on the interaction (dest_human DSTN): disrupting interaction strength
Substance: Actin, cytoplasmic 1 (Homo sapiens) (from UniProt P60709) E364K

- effect of a mutation on the interaction (efs_human EFS): with no effect
Substance: Tyrosine-protein kinase Fyn (Homo sapiens), P06241-3 V410M

- effect of a mutation on the interaction (zn446_human ZNF446 [2]): with no effect
- effect of a mutation on the interaction (rbtn2_human LMO2): with no effect
- effect of a mutation on the interaction (dzip3_human DZIP3): with no effect
- effect of a mutation on the interaction (trim1_human MID2 [3]): with no effect
Substance: Zinc finger protein 24 (Homo sapiens), P17028 T85M

- effect of a mutation on the interaction (zn446_human ZNF446 [4]): with no effect
Substance: Zinc finger protein 397 (Homo sapiens), Q8NF99 P169S

- effect of a mutation on the interaction (trim1_human MID2 [5]): with no effect
- effect of a mutation on the interaction (mtus2_human MTUS2): with no effect
Substance: Zinc finger protein 785 (Homo sapiens), A8K8V0 R212C

- effect of a mutation on the interaction (ubql1_human UBQLN1): with no effect
Substance: Frizzled-7 (Homo sapiens) (from UniProt O75084) P285S

- effect of a mutation on the interaction (nasp_human NASP): with no effect
Substance: Histone H3.1 (Homo sapiens) (from UniProt P68431) A128G

- effect of a mutation on the interaction (kr101_human KRTAP10-1): with no effect
Substance: Zinc finger protein 559 (Homo sapiens), Q9BR84 L6W

- effect of a mutation on the interaction (zbt14_human ZBTB14): with no effect
Substance: Small ribosomal subunit protein eS7 (Homo sapiens) (from UniProt P62081) R106Q

- effect of a mutation on the interaction (tmm79_human TMEM79): with no effect
- effect of a mutation on the interaction (cxcl9_human CXCL9): with no effect
Substance: Surfactant protein C (Homo sapiens) (from UniProt P11686) R167Q

- effect of a mutation on the interaction (hxb5_human HOXB5): with no effect
- effect of a mutation on the interaction (aapk1_human PRKAA1): with no effect
- effect of a mutation on the interaction (ctbp2_human CTBP2): with no effect
- effect of a mutation on the interaction (cry2_human CRY2): with no effect
Substance: C-terminal-binding protein 1 (Homo sapiens) (from UniProt Q13363) A436T

- effect of a mutation on the interaction (fund1_human FUNDC1): with no effect
Substance: Tyrosine-protein kinase Yes (Homo sapiens), P07947 V52L
